In patent US12606817B2, “Methods of creating and screening DNA-encoded libraries” (X-Chem, Inc., priority 2009, dated 2026):

Test: solubility of headpiece in organic solvent (DMF)
Format: physicochemical
Conditions: DMF/water reaction mixture
Procedure: In order to prepare a “library of 1,” a model compound, 5-(4,6-dichlorotriazinyl-aminofluorescein) (DTAF; Anaspec) (FIG. 12), was coupled to the amino group of HP-1. DTAF structurally represents a trichlorotriazine scaffold with one amino compound coupled. To form a library, trichlorotriazine scaffolds can be derivatized with a diversity of building blocks at each of the three chlorine positions. DTAF also provides a fluorescent label to the model library. The reaction (10 μl) was set up as follows. To 5 μl of 400 μM HP-1 dissolved in water, 2 μl of 750 mM borate buffer, pH 9.5, and 1 μl of DMF were added. DTAF was dissolved in DMF to 50 mM and 2 μl was added to the reaction. Final concentrations of the HP-1 and DTAF were 200 μM and 10 mM, respectively, thus generating a 50-fold excess of DTAF. The final DMF concentration was 30%. […] The reaction was allowed to proceed at 4° C. for 16-20 hours. The reaction mixture was then diluted with water to 30-50 μl and desalted on a Zeba spin column (Pierce). No further purification was completed at this point.

## HP-1: hairpin oligonucleotide headpiece (SEQ ID NO: 51) with amino-PEG2000 linker on C5-amino-modified dT (DNA TCCTGGCTGAGGCGAGAGTTTTTCTCTCGCCTCAGCCAGGACC; amino-PEG2000 linker on C5-amino-modified dT; modified_base (21)..(21) dT-C6-NH)
  stayed soluble in up to % DMF: up to 90 % DMF
